Reference: PMC2553570
Like-named read-outs stand apart in the source and are kept apart here.

Key:
Test in all cases: EMSA
[1] = biological target: T1, Ku70DM/80DM (human, UniProt P12956;P13010 1-609;1-732, K357A;K358A;K238A;K239A)
[2] = biological target: T2, Ku70DM/80TM (human, UniProt P12956;P13010 1-609;1-732, K357A;K358A;K233A;K238A;K239A)
[3] = biological target: T3, Ku70DM/80 (human, UniProt P12956;P13010 1-609;1-732, K358A;Ku70:K357A)
[4] = biological target: T4, Ku70/80TM (human, UniProt P12956;P13010 1-609;1-732, K238A;K239A;Ku80:K233A)
T4 sequence (P12956 whole entry, stated change not applied, chain 1 of 2): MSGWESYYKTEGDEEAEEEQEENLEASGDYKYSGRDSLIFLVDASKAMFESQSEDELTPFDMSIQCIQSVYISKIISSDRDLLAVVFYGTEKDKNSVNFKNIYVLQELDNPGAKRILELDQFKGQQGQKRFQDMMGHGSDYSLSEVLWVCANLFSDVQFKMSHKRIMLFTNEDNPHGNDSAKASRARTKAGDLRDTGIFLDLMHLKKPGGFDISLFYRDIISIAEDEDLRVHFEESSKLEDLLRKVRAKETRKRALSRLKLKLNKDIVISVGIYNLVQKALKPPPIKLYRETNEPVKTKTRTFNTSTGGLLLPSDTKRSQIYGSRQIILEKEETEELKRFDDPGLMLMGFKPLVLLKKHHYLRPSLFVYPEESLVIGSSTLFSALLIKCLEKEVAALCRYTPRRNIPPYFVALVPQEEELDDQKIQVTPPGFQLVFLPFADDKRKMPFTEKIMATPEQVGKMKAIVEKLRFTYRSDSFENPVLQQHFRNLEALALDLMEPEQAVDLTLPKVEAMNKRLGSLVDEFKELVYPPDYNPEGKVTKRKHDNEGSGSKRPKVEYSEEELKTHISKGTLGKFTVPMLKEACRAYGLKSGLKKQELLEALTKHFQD
T4 sequence (P13010 whole entry K238A/K239A, chain 2 of 2): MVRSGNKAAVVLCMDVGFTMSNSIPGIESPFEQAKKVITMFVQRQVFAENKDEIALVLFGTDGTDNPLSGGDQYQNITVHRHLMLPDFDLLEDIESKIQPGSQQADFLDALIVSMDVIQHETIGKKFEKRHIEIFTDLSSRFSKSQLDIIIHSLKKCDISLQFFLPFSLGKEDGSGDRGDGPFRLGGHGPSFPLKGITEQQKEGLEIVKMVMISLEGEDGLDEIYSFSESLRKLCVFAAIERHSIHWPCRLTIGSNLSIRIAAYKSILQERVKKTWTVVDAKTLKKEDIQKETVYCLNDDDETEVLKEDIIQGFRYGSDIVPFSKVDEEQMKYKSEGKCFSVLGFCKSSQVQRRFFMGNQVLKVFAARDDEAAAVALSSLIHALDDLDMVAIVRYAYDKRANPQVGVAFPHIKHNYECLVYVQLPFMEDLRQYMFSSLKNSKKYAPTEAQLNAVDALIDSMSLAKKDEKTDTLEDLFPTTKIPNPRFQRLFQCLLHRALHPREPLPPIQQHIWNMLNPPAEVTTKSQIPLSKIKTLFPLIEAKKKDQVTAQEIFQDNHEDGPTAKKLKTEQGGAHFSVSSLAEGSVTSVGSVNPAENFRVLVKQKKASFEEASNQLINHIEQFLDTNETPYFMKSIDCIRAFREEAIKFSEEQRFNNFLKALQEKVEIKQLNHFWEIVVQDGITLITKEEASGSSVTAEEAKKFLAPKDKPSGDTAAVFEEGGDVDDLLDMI

[5] = biological target: T5, Ku70/80 wild-type (human, UniProt P12956;P13010 1-609;1-732)
T5 sequence (P12956 whole entry, chain 1 of 2): as the sequence (P12956 whole entry, stated change not applied, chain 1 of 2) above
T5 sequence (P13010 whole entry, chain 2 of 2): as the sequence (P13010 whole entry K238A/K239A, chain 2 of 2) above, with A238K, A239K counted along it

[6] = biological target: T5, Ku70/80 wild-type; remark: listed apart in the source
[7] = biological target: T1, Ku70DM/80DM; remark: listed apart in the source
[8] = biological target: T2, Ku70DM/80TM; remark: listed apart in the source
[9] = biological target: Ku70/80DM (human, UniProt P12956;P13010 1-609;1-732, K239A;Ku80:K238A)
Chain of Ku70/80DM (P12956 whole entry, stated change not applied, chain 1 of 2): as the sequence (P12956 whole entry, stated change not applied, chain 1 of 2) above
Chain of Ku70/80DM (P13010 whole entry K239A, chain 2 of 2): as the sequence (P13010 whole entry K238A/K239A, chain 2 of 2) above, with A238K counted along it

[10] = biological target: T3, Ku70DM/80; remark: listed apart in the source
[11] = biological target: T4, Ku70/80TM; remark: listed apart in the source

Measured: binding result

T3 sequence (P12956 whole entry K358A, chain 1 of 2): as the sequence (P12956 whole entry, stated change not applied, chain 1 of 2) above, with K358A counted along it
T3 sequence (P13010 whole entry, stated change not applied, chain 2 of 2): as the sequence (P13010 whole entry K238A/K239A, chain 2 of 2) above, with A238K, A239K counted along it
T2 sequence (P12956 whole entry K357A/K358A, chain 1 of 2): as the sequence (P12956 whole entry, stated change not applied, chain 1 of 2) above, with K357A, K358A counted along it
T2 sequence (P13010 whole entry K233A/K238A/K239A, chain 2 of 2): as the sequence (P13010 whole entry K238A/K239A, chain 2 of 2) above, with K233A counted along it
T1 sequence (P12956 whole entry K357A/K358A, chain 1 of 2): as the sequence (P12956 whole entry, stated change not applied, chain 1 of 2) above, with K357A, K358A counted along it
T1 sequence (P13010 whole entry K238A/K239A, chain 2 of 2): as the sequence (P13010 whole entry K238A/K239A, chain 2 of 2) above

B1: one-Ku duplex with unpaired region (dsDNA)
DNA 1: GTTTTTAGTTTATTGGGCGCG
DNA 2: CGCGCCCAGCTTTCCCAGCTAATAAACTAAAAAC
binds: [1] | [2] | [3] | [4] | [5]

B2: 48-bp duplex (two-Ku) (dsDNA)
DNA 1: CTGAGAAAACTGTGCGTCTTCGCGGCAATTGAGAGGCATTCCATTCAC
DNA 2: GTGAATGGAATGCCTCTCAATTGCCGCGAAGACGCACAGTTTTCTCAG
binds: [6] | [7] | [8] | [9] | [10] | [11]
